This note sets out measurements from patent US7098013B2, “Polypeptide having α-isomaltosyl-transferase activity” (Kabushiki Kaisha Hayashibara Seibutsu Kagaku Kenkyujo, priority 2000, dated 2006).

A short description of data set [1]: Thermal stability of the polypeptide. Type of data set: physicochemical. To be noted: 20 mM acetate buffer (pH 6.0), 60 min. The procedure: A purified specimen of polypeptide having α-isomaltosyl-transferring activity, obtained by the method in Experiment 3-2, was incubated in 20 mM acetate buffer (pH6.0) at various temperatures for 60 min according to the assay method of α-isomaltosyl-transferring enzyme disclosed in Experiment 1-1.

The nature of data set [2]: Optimum temperature of the enzyme activity. Type of data set: biochemical. To be noted: incubated for 30 min, pH 6.0. The procedure:
(§1) The activity of α-isomaltosyl-transferring enzyme was measured by the following assay: A substrate solution was prepared by dissolving panose in 100 mM acetate buffer (pH 6.0) to give a concentration of 2% (w/v). A reaction mixture was prepared by mixing 0.5 ml of the substrate solution and 0.5 ml of an enzyme solution, and incubated at 35° C. for 30 min. After stopping the reaction by boiling for 10 min, the amount of glucose formed in the reaction mixture was determined by the glucose oxidase-peroxidase method. One unit of α-isomaltosyl-transferring activity was defined as the amount of the enzyme that forms one μmole of glucose per minute under the above conditions.
A purified specimen of polypeptide having α-isomaltosyl-transferring activity, obtained by the method in Experiment 3-2, was acted on the substrate in 20 mM acetate buffer (pH6.0) at various temperatures for 30 min, according to the assay method of α-isomaltosyl-transferring enzyme disclosed in Experiment 1-1.

The nature of data set [3]: Optimum pH of the enzyme activity. To be noted: MacIlvaine buffer, 35° C., 30 min. Type of data set: biochemical. The procedure: as §1
A purified specimen of polypeptide having α-isomaltosyl-transferring activity, obtained by the method in Experiment 3-2, was acted on the substrate in MacIlvaine buffer of various pHs at 35° C. for 30 min according to the assay method of α-isomaltosyl-transferring enzyme disclosed in Experiment 1-1.

B1: polypeptide having α-isomaltosyl-transferring enzyme activity from Bacillus globisporus C11: purified α-isomaltosyl-transferring enzyme from Bacillus globisporus C11 (FERM BP-7144), contains the … (protein, listed as Bacillus globisporus)
chain: IDGVYHAPYGIDDLYEIQATERSPRDPVAGDTVYIKITTWPIESGQTAWVTWTKNGVNQAAVGAAFKYNSGNNTYWEANLGTFAKGDVISYTVHGNKDGANEKVIGPFTFTVTGWESVSSISSITDNTNRVVLNAVPNTGTLKPKINLSFTADDVLRVQVSPTGTGTLSSGLSNYTVSDTASTTWLTTSKLKVKVDKNPFKLSVYKPDGTTLIARQYDSTTNRNIAWLTNGSTIIDKVEDHFYSPASEEFFGFGEHYNNFRKRGNDVDTYVFNQYKNQNDRTYMAIPFMLNSSGYGIFVNSTYYSKFRLATERTDMFSFTADTGGSAASMLDYYFIYGNDLKNVVSNYANITGKPTALPKWAFGLWMSANEWDRQTKVNTAINNANSNNIPATAVVLEQWSDENTFYIFNDATYTPKTGSAAHAYTDFTFPTSGRWTDPKAMADNVHNNGMKLVLWQVPIQKWTSTPYTQKDNDEAYMTAQNYAVGNGSGGQYRIPSGQWFENSLLLDFTNTAAKNWWMSKRAYLFDGVGIDGFKTDGGEMVWGRSNTFSNGKKGNEMRNQYPNEYVKAYNEYARSKKADAVSFSRSGTQGAQANQIFWSGDQESTFGAFQQAVNAGLTASMSGVPYWSWDMAGFTGTYPTAELYKRATEMAAFAPVMQFHSESNGSSGINEERSPWNAQARTGDNTIISHFAKYTNTRMNLLPYIYSEAKMASDTGVPMMRAMALEYPKDTNTYGLTQQYMFGGNLLIAPVMNQGETNKSIYLPQGDWIDFWFGAQRPGGRTISYTAGIDDLPVFVKFGSILPMNLNAQYQVGGTIGNSLTSYTNLAFRIYPLGTTTYDWNDDIGGSVKTITSTEQYGLNKETVTVPAINSTKTLQVFTTKPSSVTVGGSVMTEYSTLTALTGASTGWYYDTVQKFTYVKLGSSASAQSVVLNGVNKVEYEAEFGVQSGVSTNTNHAGYTGTGFVDGFETLGDNVAFDVSVKAAGTYTMKVRYSSGAGNGSRAIYVNNTKVTDLALPQTTSWDTWGTATFSVSLSTGLNTVKVSYDGTSSLGINFDNIAIVEQ
Turning to B1, the thermal stability result in data set [1] was “up to 40 °C”. The optimum temperature entry in data set [2] is “about 50 °C”.

B2: polypeptide having α-isomaltosyl-transferring enzyme activity from Bacillus globisporus N75: purified α-isomaltosyl-transferring enzyme from Bacillus globisporus N75 (FERM BP-7591), contains the … (protein, listed as Bacillus globisporus)
chain: IDGVYHAPYGIDDLYEIQATERSPRDPVAGETVYIKITTWPIEPGQTAWVTWTKNGVAQPAVGAAYKYNSGNNTYWEANLGSFAKGDVISYTVRGNKDGANEKTAGPFTFTVTDWEYVSSIGSVTNNTNRVLLNAVPNTGTLSPKINISFTADDVFRVQLSPTGSGTLSTGLSNFTVTDSASTAWISTSKLKLKVDKNPFKLSVYKPDGTTLIARQYDSTANRNLAWLTNGSTVINKIEDHFYSPASEEFFGFGERYNNFRKRGTDVDTYVYNQYKNQNDRTYMAIPFMLNSSGYGIFVNSTYYSKFRLATERSDMYSFTADTGGSANSTLDYYFIYGNDLKGVVSNYANITGKPAALPKWAFGLWMSANEWDRQSKVATAINNANTNNIPATAVVLEQWSDENTFYMFNDAQYTAKPGGSTHSYTDYIFPAAGRWPNPKQMADNVHSNGMKLVLWQVPIQKWTAAPHLQKDNDESYMIAQNYAVGNGSGGQYRIPSGQWFENSLLLDFTNPSAKNWWMSKRAYLFDGVGIDGFKTDGGEMVWGRWNTFANGKKGDEMRNQYPNDYVKAYNEYARSKKSDAVSFSRSGTQGAQANQIFWSGDQESTFGAFQQAVQAGLTAGLSGVPYWSWDLAGFTGAYPSAELYKRATAMSAFAPIMQFHSEANGSSGINEERSPWNAQARTGDNTIISHFAKYTNTRMNLLPYIYSEAKAASDTGVPMMRAMALEYPSDTQTYGLTQQYMFGGSLLVAPVLNQGETNKNIYLPQGDWIDFWFGAQRPGGRTISYYAGVDDLPVFVKSGSILPMNLNGQYQVGGTIGNSLTAYNNLTFRIYPLGTTTYSWNDDIGGSVKTITSTEQYGLNKETVTLPAINSAKTLQVFTTKPSSVTLGGTALTAHSTLSALIGASSGWYYDTVQKLAYVKLGASSSAQTVVLDGVNKVEYEAEFGTLTGVTTNTNHAGYMGTGFVDGFDAAGDAVTFDVSVKAAGTYALKVRYASAGGNASRAIYVNNAKVTDLALPATANWDTWGTATVNVALNAGYNSIKVSYDNTNTLGINLDNIAIVEH
For the molecule B2, the thermal stability entry in data set [1] is “up to 45 °C”. Further, the optimum temperature entry in data set [2] is “about 50 °C”. In addition, the “optimum pH” value in data set [3] is “about 6.0”.
